B1: His6-ERK2 (enzyme, rat, UniProt P63086 1-358, looked up)
chain: MAAAAAAGPEMVRGQVFDVGPRYTNLSYIGEGAYGMVCSAYDNLNKVRVAIKKISPFEHQTYCQRTLREIKILLRFRHENIIGINDIIRAPTIEQMKDVYIVQDLMETDLYKLLKTQHLSNDHICYFLYQILRGLKYIHSANVLHRDLKPSNLLLNTTCDLKICDFGLARVADPDHDHTGFLTEYVATRWYRAPEIMLNSKGYTKSIDIWSVGCILAEMLSNRPIFPGKHYLDQLNHILGILGSPSQEDLNCIINLKARNYLLSLPHKNKVPWNRLFPNADSKALDLLDKMLTFNPHKRIEVEQALAHPYLEQYYDPSDEPIAEAPFKFDMELDDLPKEKLKELIFEETARFQPGYRS

Experiments:
His6-ERK2 = target: B1; test: peptide or protein array
MBP-arrestin-2 = MBP-arrestin-2 (bovine, UniProt P17870 1-418); test: pull-down

binding result (His6-ERK2) | binding result (MBP-arrestin-2) | Binder
binds |  | CKVYTLTPFLANNRE [arrestin-2-derived peptide CKVYTLTPFLANNRE]
 | binds | B1

Reference: article PMC8977243 (Journal of molecular biology, 2022)
